The target of experiment [1] is T1, human 4-1BB (human, UniProt Q07011 24-255).
T1 construct: whole, on cells; also called CD137; TNFRSF9
The experiment in a line: FACS, CHO-K1/hu 4-1BB cells [B].
Experimental: (§1) This example is intended to investigate the in vitro binding activity of anti-human 4-1BB HCAb and H2L2 monoclonal antibodies to human and cynomolgus monkey 4-1BB. Antibody binding experiments at the cellular level were conducted using a CHO-K1 cell strain overexpressing human 4-1BB (CHO-K1-hu 4-1BB, Genescript) and a CHO-K1 cell strain overexpressing cynomolgus monkey 4-1BB (CHO-K1-cyno 4-1BB, Genescript). Briefly, the CHO-K1-hu 4-1BB and CHO-K1-cyno 4-1BB cells were digested and resuspended in DMEM complete medium, and the cell density was adjusted to 1×10⁶ cells/mL. […] The cells were incubated at 4° C. for 1 h away from light. Thereafter, the cells in each well were rinsed twice with 100 μL of pre-cooled PBS, and centrifuged at 500 g at 4° C. for 5 min, and then the supernatant was discarded. […] The plate was incubated away from light at 4° C. for 30 min. The cells in each well were rinsed twice with 100 μL of pre-cooled PBS, and centrifuged at 500 g at 4° C. for 5 min, and then the supernatant was discarded. Finally, the cells in each well were resuspended in 200 μL of pre-cooled PBS, and the fluorescence signal values were read using a BD FACS CANTOII.

Experiment [2] concerns the target T2, cynomolgus monkey 4-1BB (cynomolgus monkey).
T2 construct: whole, on cells; also called CHO-K1-cyno 4-1BB; CHO-K1/cyno4-1BB
The experiment in a line: FACS, CHO-K1/cyno 4-1BB cells [C].
Experimental: as §1

In experiment [3] the target is T1, human 4-1BB. Briefly: FACS, CHO-K1/hu 4-1BB cells [A].
Experimental: as §1
For experiment [4], the target named is T2, cynomolgus monkey 4-1BB. Briefly: FACS, CHO-K1/cyno 4-1BB cells [A].
Experimental: as §1
For the next experiment, the target named is T3, mouse B7-H4 (mouse, UniProt Q7TSP5 25-257).
T3 construct: whole, on cells; also called CHO-K1/m B7-H4; CHO-K1/mB7-H4
T3 sequence (looked up): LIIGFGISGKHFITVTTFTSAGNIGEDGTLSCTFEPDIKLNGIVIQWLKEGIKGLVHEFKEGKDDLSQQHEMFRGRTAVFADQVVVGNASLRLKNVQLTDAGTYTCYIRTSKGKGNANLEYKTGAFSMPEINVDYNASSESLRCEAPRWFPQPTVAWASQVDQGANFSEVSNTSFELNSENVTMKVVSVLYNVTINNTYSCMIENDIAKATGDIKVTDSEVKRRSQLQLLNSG
The experiment in a line: FACS, CHO-K1/m B7H4 cells [C].

The next experiment addresses T4, human B7-H4 (human, UniProt Q7Z7D3 25-282).
T4 construct: whole, on cells; also called VTCN1; SK-BR-3 cell line highly expressing B7-H4
T4 sequence (looked up): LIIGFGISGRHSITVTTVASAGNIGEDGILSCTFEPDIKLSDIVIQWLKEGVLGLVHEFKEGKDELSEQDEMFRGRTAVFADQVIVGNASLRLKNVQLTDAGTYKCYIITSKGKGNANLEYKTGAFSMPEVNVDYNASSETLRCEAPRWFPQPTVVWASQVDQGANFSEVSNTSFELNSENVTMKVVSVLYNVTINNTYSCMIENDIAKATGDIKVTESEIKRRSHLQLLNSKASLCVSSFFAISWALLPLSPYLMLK
The experiment in a line: FACS, SK-BR-3 cells [A].

The target in a further experiment is T5, cynomolgus monkey B7-H4 (cynomolgus monkey, UniProt A0A2K5U6P5 25-282).
T5 construct: whole, on cells; also called CHO-K1/cyno B7-H4; CHO-K1/cynoB7H4
T5 sequence: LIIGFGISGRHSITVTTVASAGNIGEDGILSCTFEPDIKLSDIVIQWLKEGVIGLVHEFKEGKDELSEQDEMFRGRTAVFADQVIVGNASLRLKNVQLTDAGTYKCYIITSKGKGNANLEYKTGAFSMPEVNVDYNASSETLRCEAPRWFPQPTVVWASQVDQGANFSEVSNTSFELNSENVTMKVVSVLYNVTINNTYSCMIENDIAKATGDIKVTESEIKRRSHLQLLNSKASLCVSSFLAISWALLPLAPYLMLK
Briefly: FACS, CHO-K1/cyno B7H4 cells [B].

Experiment [5] addresses T2, cynomolgus monkey 4-1BB. The experiment in a line: FACS, CHO-K1/cyno 4-1BB cells [B].
Experimental: as §1

T1 sequence (Q07011 24-255): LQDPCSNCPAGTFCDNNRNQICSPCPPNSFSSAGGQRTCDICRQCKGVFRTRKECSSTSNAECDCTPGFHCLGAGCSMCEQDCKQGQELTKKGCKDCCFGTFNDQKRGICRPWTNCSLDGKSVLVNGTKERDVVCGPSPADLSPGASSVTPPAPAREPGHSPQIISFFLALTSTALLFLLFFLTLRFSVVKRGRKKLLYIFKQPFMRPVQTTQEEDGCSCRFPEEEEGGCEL
Experimental for cynomolgus monkey B7-H4: (§2) This example is intended to investigate the in vitro binding activity of anti-human B7-H4 H2L2 monoclonal antibody to human/cynomolgus monkey/mouse B7-H4. Antibody binding experiments at the cellular level were conducted using a CHO-K1 cell strain overexpressing cynomolgus monkey B7-H4 (CHO-K1/cyno B7-H4, prepared in-house by Harbour Biomed), a CHO-K1 cell strain overexpressing mouse B7-H4 (CHO-K1/m B7-H4, prepared in-house by Harbour Biomed) and an SK-BR-3 cell line highly expressing human B7-H4 (ATCC® HTB-30). Briefly, the CHO-K1/cyno B7-H4 cells, CHO-K1/m B7-H4 cells or SK-BR-3 cells were digested and resuspended with PBS containing 2% BSA. The cell density was adjusted to 1×10⁶ cells/mL. […] The cells were incubated at 4° C. for 2 h away from light. Thereafter, the cells in each well were rinsed twice with 100 μL of pre-cooled PBS containing 2% BSA, and centrifuged at 500 g at 4° C. for 5 min, and then the supernatant was discarded. […] The plate was incubated away from light at 4° C. for 1 h. The cells in each well were rinsed twice with 100 μL of pre-cooled PBS containing 2% BSA, and centrifuged at 500 g at 4° C. for 5 min, and then the supernatant was discarded. Finally, the cells in each well were resuspended in 200 μL of pre-cooled PBS containing 2% BSA, and the fluorescence signal values were read using an ACEA Novocyte3000 flow cytometer.
Experimental for human B7-H4: as §2
Experimental for mouse B7-H4: as §2

B1: PR001768 (antibody, human IgG1, V domains shown)
VH: EVQLLESGGGLVQPGGSLRLSCAASGFTFSNYAMTWVRQAPGKGLEWVSSISGSGDSTYYADSVKGRFTISRDNSKNTLYLQMNSLRAEDTAVYYCAKEGTGTTSDYYYNVDVWGQGTTVTVSS
notes: anti-4-1BB HCAb, human IgG1 Fc
Take B1: in the experiment with human 4-1BB [1], the EC50 is 0.846 nM and the “Maximum MFI” value was determined as 1550 MFI. Besides, in the experiment with cynomolgus monkey 4-1BB [2], the EC50 is 6.97 nM and the “Maximum MFI” value turned out to be 62200 MFI.

B2: PR001758 (antibody, human IgG1, V domains shown)
VH: EVQLLESGGGLVQLGGSLRLSCAASGFTFSRYAMTWVRQAPEKGLEWVSSISGSGDDTYYGDSVKGRFTISRDNSQNTVYLQMNSLRAEDTAVYFCAKEKAGTTGDYYYNVDVWGQGTTVTVSS
notes: anti-4-1BB fully human heavy-chain-only antibody (HCAb): VH fused to human IgG1 Fc
In the case of B2, in the experiment with human 4-1BB [3], the EC50 worked out at 0.212 nM and the “Maximum MFI” value was determined as 1640 MFI. Moreover, in the experiment with cynomolgus monkey 4-1BB [4], the response was half-maximal at 0.575 nM (EC50) and the “Maximum MFI” value stood at 11200 MFI.

B3: PR002037 (antibody, human IgG1, kappa, V domains shown)
VH: QVQLVQSGAEVKKPGSSMRVSCKASEDTFSSYAISWVRQAPGQGLEWMGGTAPIFGTTNYAQKFQGRVTITADKSTSTAYMELSSLRSEDTAVYYCARGGPYFDYWGQGTLVTVSS
VL: EIVMTQSPASLSVSPGERATLSCRASQSVSSNLAWYQQKPGQAPRLLIYGASTRATGIPARVSGGGSGTEFTLTISSLQSEDFAVYCCQQYKNWPFTFGPGTKLEIKR
notes: also called 1025_B-1H11 clone
Consider B3, for which the EC50 with mouse B7-H4 is 2.57 nM; in the experiment with human B7-H4, 2.22 nM; in the experiment with cynomolgus monkey B7-H4 it was 2.38 nM. The “Maximum MFI” value with mouse B7-H4 turned out to be 1.69e+06 MFI; in the experiment with human B7-H4, 257000 MFI; in the experiment with cynomolgus monkey B7-H4, 1.92e+06 MFI.

B4: PR002410 (antibody, human IgG1, kappa, V domains shown)
VH: QVQLVQSGAEVKKPGSSMRVSCKASEDTFSSYAISWVRQAPGQGLEWMGGTAPIFGTTNYAQKFQGRVTITADKSTSTAYMELSSLRSEDTAVYYCARGGPYFDYWGQGTLVTVSS
VL: EIVMTQSPASLSVSPGERATLSCRASQSVSSNLAWYQQKPGQAPRLLIYGASTRATGIPARVSGGGSGTEFTLTISSLQSEDFAVYYCQQYKNWPFTFGPGTKLEIKR
notes: anti-B7-H4 H2L2 recombinant fully human antibody, human IgG1 / kappa; also called PR002037 variant
B4: the results for the EC50 in the experiment with mouse B7-H4, with human B7-H4 and in the experiment with cynomolgus monkey B7-H4 were 2.38 nM, 1.87 nM and 2.08 nM, respectively. Further, the “Maximum MFI” value in the experiment with mouse B7-H4 is 1.55e+06 MFI; with human B7-H4, 245000 MFI; with cynomolgus monkey B7-H4, 1.86e+06 MFI.

B5: PR001763 (antibody, human IgG1, V domains shown)
VH: EVQLLESGGGLVQPGGSLRLSCTASGFTFSNYAMSWVRQAPEKGLEWVSSISGSGGSTFYADSVKGRFTISRDNSKNTLYLQMNRLTAEDTAVYYCAKEGSNGTDDYHYDIDVWGQGTTVTVSS
notes: as for B1
In the experiment with human 4-1BB [3], B5 registered an EC50 of 0.616 nM. Moreover, the “Maximum MFI” value in the experiment with human 4-1BB [3] was determined as 1600 MFI; in the experiment with cynomolgus monkey 4-1BB [5], 57700 MFI.

B6: PR001476 (antibody, human IgG1, kappa, V domains shown)
VH: QVQLVESGGGVVQPGRSLRLSCAASGFTFRSFGMHWVRQAPGKGLEWVAVISYDGSNEYYADSVKGRFIISRDNSKDTLYLQMNSLRAGDTAVYYCAKGGGLRWYFAYWGQGTLVTVSS
VL: EIVMTQSPATLSVSPGERATLSCRASQSISSNLGWYQQKPGQAPRLLIYGASTRATGIPARFSGSGSGTEFTLTISSLQSEDFAVYYCQQYNSWPPLTFGGGTKVEIKR
notes: anti-B7-H4 H2L2 recombinant fully human antibody, human IgG1 / kappa; also called 80C8-2E9 clone
Take B6: the EC50 in the experiment with mouse B7-H4 worked out at 3.61 nM; with human B7-H4, 0.367 nM; with cynomolgus monkey B7-H4 it was 1.1 nM. Also, the “Maximum MFI” value in the experiment with mouse B7-H4 turned out to be 353000 MFI; in the experiment with human B7-H4, 239000 MFI; in the experiment with cynomolgus monkey B7-H4, 1.82e+06 MFI.

B7: PR001764 (antibody, human IgG1, V domains shown)
VH: EVQLLESGGGLVQPGGSLRLSCAASGFTFSSYAMSWVRQAPEKGLEWVSAISGGGGSTYYADSVKGRFTISRDNSKNTLYLQMDSLKAEDTAVYYCAKEGTTETDDYHYNMDVWGQGTTVTVSS
notes: as for B1
Consider B7, for which, in the experiment with human 4-1BB [1], the EC50 came out at 0.249 nM and the “Maximum MFI” value was 1560 MFI. Also, in the experiment with cynomolgus monkey 4-1BB [5], it took 5.33 nM to reach a half-maximal effect (EC50) and the “Maximum MFI” value worked out at 77300 MFI.

The values are drawn from patent US20230235090A1 (HARBOUR BIOMED US, published 2023).
